The results in this text go back to PMC4840321.

Data set [1] can be described thus: western blot, SGTA+Vpu-induced rise of 23-kDa species. The following applies: glycan lost; control: wild type.
Data set [2] can be described thus: cytosol/membrane fractionation ± SGTA and Vpu, anti-HA blot. To be noted: glycan lost; control: wild type 23-kDa species.
Data set [3] can be described thus: western blot, 23-kDa tetherin level ± SGTA and Vpu. To be noted: glycan changed form; control: untreated.

B1: tetherin/BST-2/CD317/HM1.24: N65A (protein)
parent chain: MASTSYDYCRVPMEDGDKRCKLLLGIGILVLLIIVILGVPLIIFTIKANSEACRDGLRAVMECRNVTHLLQQELTEAQKGFQDVEAQAATCNHTVMALMASLDAEKAQGQKKVEELEGEITTLNHKLQDASAEVERLRRENQVLSVRIADKKYYPSSQDSSSAAAPQLLIVLLGLSALLQ
B1: in data set [1], the expression_or_secretion result is reported as “no change”.

B2: tetherin/BST-2/CD317/HM1.24: N92A (protein)
parent chain: MASTSYDYCRVPMEDGDKRCKLLLGIGILVLLIIVILGVPLIIFTIKANSEACRDGLRAVMECRNVTHLLQQELTEAQKGFQDVEAQAATCNHTVMALMASLDAEKAQGQKKVEELEGEITTLNHKLQDASAEVERLRRENQVLSVRIADKKYYPSSQDSSSAAAPQLLIVLLGLSALLQ
On to B2, for which, in data set [1], the expression_or_secretion entry is “no change”.

B3: tetherin/BST-2/CD317/HM1.24: NN-AA (protein)
parent chain: MASTSYDYCRVPMEDGDKRCKLLLGIGILVLLIIVILGVPLIIFTIKANSEACRDGLRAVMECRNVTHLLQQELTEAQKGFQDVEAQAATCNHTVMALMASLDAEKAQGQKKVEELEGEITTLNHKLQDASAEVERLRRENQVLSVRIADKKYYPSSQDSSSAAAPQLLIVLLGLSALLQ
With B3, the localisation_or_trafficking entry in data set [2] was “no change”. In data set [1], the expression_or_secretion entry is “abolishes”.

B4: tetherin/BST-2/CD317/HM1.24: kifunensine (protein)
parent chain: MASTSYDYCRVPMEDGDKRCKLLLGIGILVLLIIVILGVPLIIFTIKANSEACRDGLRAVMECRNVTHLLQQELTEAQKGFQDVEAQAATCNHTVMALMASLDAEKAQGQKKVEELEGEITTLNHKLQDASAEVERLRRENQVLSVRIADKKYYPSSQDSSSAAAPQLLIVLLGLSALLQ
Regarding B4, the expression_or_secretion entry in data set [3] was “no change”.
